The target in this assay is membrane-derived caspases. In words: cell-based or functional assay.

* marks the point of attachment. AMC = Cc1cc(=O)oc2cc(N*)ccc12

B1: DEVD-amc (Acetyl-Asp-Glu-Val-Asp-aminomethylcoumarin) (peptide)
peptide: Ac-DEVD-{AMC}
For the molecule B1, the Km for hydrolysis of DEVD-amc was 10 µM.

(Values after patent publication US20020197702A1.)
